The results in this text go back to patent publication US20060222638A1, “Cholesterol biosynthesis pathway modulators and uses thereof” (priority 2003, published 2006).

One assay deals with T1, HMG-CoA reductase (Homo sapiens, UniProt P04035).
T1 construct: The cell proteins were used as enzyme source; endogenous in cells; host or cells: HepG2
T1 sequence (P04035 1-888): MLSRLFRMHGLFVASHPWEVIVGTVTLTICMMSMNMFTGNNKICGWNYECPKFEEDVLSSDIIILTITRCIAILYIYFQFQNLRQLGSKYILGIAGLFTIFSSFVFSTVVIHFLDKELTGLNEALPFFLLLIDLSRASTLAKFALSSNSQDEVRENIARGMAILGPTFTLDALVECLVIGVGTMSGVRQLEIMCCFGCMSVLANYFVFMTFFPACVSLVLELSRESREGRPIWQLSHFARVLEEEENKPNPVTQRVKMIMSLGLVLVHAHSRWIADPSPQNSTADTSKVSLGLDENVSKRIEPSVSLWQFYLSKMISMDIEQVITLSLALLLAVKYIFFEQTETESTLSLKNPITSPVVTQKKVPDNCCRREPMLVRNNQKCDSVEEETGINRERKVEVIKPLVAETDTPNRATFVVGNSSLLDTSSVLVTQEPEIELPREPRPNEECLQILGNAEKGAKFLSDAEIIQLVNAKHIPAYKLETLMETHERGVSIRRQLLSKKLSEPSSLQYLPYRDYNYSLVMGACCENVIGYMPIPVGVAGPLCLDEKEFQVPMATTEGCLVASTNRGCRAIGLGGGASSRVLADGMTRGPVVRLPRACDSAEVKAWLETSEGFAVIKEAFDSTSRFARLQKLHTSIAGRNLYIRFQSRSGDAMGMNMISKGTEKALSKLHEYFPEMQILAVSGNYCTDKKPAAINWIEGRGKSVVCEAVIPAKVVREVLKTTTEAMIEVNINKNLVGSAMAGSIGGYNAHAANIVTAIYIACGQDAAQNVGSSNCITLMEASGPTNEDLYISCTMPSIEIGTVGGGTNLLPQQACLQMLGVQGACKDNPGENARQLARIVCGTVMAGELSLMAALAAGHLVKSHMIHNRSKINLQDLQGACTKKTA
In words: HMGCoA reductase activity assay, HepG2 cells treated with inhibitors, cell proteins used as enzyme source. The class given is cell-based. As for the experimental part: The cell stocks of Human Hepatoma cell line-HepG2 were cultured in T-25 flask in Eagle's minimum essential medium (MEM), supplemented with 10% fetal bovine serum, and incubated in a humidified incubator (5% CO2) at 37° C.
After 4 hours incubation with the inhibitors, the media was discarded and cells were washed with 0.90%saline. The cells were scraped and collected into a 50 ml tube. The cells were centrifuged at 2400 rpm for 5 min at 4 C, and the resulting cell pellet was washed twice with 10 ml saline. The final cell pellet was resuspended in 30 μl lysis buffer and briefly sonicated. The suspension was centrifuged at 14,000 rpm for 15 min and the supernatant containing the enzyme, HMGCoA reductase, was used for the assay.
In biosynthesis of cholesterol, HMG-CoA reductase is the key enzyme to convert HMG-CoA to its product mevalonate. In the presence of HCl, the mevalonate is converted into mevalonolactone. […] It will retain HMG-CoA, which is negatively charge in the column but not mevalonolactone, which will be eluted out by ammonium formate.
The 50 μl assay buffer (100 mM potassium dihydrogen phosphate, 4 mM dithiothreitol, 20 mM glucose-6-phosphate, 20 unit glucose-6-phosphate dehydrogenase, 2.5 mM NADP^+, 30 μM [14C] HMG-CoA (0.01 μCi) and microsomal protein) was incubated at 37° C. for 1 hour. Reaction was terminated by addition of 25 μl of 2M HCl. After 30 min lactonization of mevalonate to mevalonolactone, 500 μl of 20 mM ammonium formate was added to each sample, spun for 5 min at 14,000 rpm.
Supernatant was applied to the column that is pre-packed with QAE-Sephadex (4 cm), equilibrated with ammonium formate. The first 5 ml fractions was eluted with 20 mM ammonium formate, followed by 5 ml of 0.05M HCl and 10 ml of 0.1M HCl. Radioactivity of the first 5 ml (1 ml fraction) was determined using Beckman LS6500 scintillation counter.

The next assay has as its target T2, HMGCoA reductase (Rattus norvegicus, UniProt P51639).
T2 construct: enzymes purified from the rat liver microsomes; from tissue; host or cells: rat hepatocytes / rat liver microsomes
T2 sequence (P51639 1-887): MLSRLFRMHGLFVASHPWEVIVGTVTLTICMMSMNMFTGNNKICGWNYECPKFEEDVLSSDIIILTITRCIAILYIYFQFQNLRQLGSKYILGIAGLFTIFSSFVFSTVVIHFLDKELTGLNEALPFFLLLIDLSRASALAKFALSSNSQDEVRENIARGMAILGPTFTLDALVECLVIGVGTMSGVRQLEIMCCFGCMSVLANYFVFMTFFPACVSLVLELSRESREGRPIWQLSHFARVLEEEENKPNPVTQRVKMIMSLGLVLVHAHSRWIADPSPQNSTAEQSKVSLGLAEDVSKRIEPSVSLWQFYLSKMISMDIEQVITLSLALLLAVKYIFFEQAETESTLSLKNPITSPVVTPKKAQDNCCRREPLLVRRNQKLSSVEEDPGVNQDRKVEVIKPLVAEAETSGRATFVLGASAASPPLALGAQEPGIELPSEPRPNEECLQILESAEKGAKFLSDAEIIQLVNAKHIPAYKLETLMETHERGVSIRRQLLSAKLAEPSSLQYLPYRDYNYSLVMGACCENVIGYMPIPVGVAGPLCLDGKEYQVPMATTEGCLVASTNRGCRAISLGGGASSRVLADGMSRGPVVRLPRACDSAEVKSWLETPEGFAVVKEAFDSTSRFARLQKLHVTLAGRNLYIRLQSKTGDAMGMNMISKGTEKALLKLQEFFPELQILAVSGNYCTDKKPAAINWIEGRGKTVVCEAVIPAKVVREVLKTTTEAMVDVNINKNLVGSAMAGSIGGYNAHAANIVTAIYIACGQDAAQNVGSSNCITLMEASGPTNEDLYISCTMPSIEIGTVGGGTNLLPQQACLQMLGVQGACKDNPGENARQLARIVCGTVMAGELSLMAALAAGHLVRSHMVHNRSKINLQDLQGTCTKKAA
The experiment in a line: HMGCoA reductase assay using the enzyme isolated from rat hepatocytes, inhibitors added to the enzyme assay. The class given is biochemical. The following applies: enzyme from rat hepatocytes / rat liver microsomes. Background: Liver microsomes are a subcellular fraction often used to study metabolism.

In a further assay the test system is HepG2 cell. In words: Microarray analysis (global gene expression, HG_U133A chips) of treated HepG2 cells. The class given is cell-based, human.
Assay [1] concerns HepG2 cell protein profile. In words: Protein profiling by SELDI-TOF (H4 and NP20 chips) of treated HepG2 cells. It is filed as cell-based, human. The following applies: Table 3A, hydrophobic chip H4. An excerpt: As for the protein profiling data, the profiles as shown in Table 3 were obtained by surface-enhanced laser […] ionization-time of flight mass spectro-photometry (SELDI-TOF) on treated and control samples using the H4 (hydrophobic) and the NP20 (hydrophilic) chips.

Assay [2] deals with T3, HMG-CoA reductase from human hepatoma HepG2 cells (human) (UniProt P04035).
T3 sequence: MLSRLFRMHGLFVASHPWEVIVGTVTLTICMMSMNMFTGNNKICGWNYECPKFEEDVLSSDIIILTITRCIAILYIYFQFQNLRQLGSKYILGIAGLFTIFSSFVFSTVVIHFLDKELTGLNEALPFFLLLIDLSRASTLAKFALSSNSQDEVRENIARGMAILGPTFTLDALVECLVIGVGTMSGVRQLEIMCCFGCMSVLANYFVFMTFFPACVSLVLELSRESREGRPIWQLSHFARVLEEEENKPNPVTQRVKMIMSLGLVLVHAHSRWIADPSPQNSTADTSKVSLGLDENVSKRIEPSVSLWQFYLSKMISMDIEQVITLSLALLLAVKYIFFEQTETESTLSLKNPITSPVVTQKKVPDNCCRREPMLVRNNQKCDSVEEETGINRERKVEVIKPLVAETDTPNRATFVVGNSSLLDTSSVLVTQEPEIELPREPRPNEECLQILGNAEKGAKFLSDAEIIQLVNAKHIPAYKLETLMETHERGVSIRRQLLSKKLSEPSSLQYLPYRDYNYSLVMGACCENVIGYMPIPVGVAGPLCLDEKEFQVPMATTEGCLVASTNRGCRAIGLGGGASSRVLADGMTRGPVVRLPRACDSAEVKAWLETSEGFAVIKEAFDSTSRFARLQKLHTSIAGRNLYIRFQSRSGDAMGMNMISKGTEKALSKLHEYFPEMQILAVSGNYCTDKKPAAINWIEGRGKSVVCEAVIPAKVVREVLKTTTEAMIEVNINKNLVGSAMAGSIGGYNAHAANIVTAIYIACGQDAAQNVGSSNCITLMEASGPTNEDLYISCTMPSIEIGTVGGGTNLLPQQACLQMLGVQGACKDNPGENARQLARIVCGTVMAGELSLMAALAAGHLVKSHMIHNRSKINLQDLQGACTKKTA
The experiment in a line: cell-based or functional assay.

The mark [3] stands for this setting: HepG2, read-out: % of inhibition on HMG-CoA reductase activity, DMSO medium.
The mark [4] stands for this setting: HepG2 cells treated with synthetic peptides or statins at 10 μM, vs untreated cells.

“Also recorded” adds a separate entry of the source. Where two headings read alike, the source gives them in different places.

On to `CC(C)c1c(C(=O)Nc2ccccc2)c(-c2ccccc2)c(-c2ccc(F)cc2)n1CC[C@@H](O)C[C@@H](O)CC(=O)O` [Atorvastatin, reference compound], for which the inhibition at 10 µM at HMG-CoA reductase (setting [3]) worked out at 70%.
On to `CC(C)n1c(/C=C/C(O)CC(O)CC(=O)O)c(-c2ccc(F)cc2)c2ccccc21` (centres unmarked) [Fluvastatin, reference compound], for which the inhibition at 10 µM at HMG-CoA reductase (HepG2 cells treated with synthetic peptides or statins at 10 μM, vs untreated cells, read-out: % of inhibition on HMG-CoA reductase activity, DMSO medium) was determined as 74%.
As for `CC[C@H](C)C(=O)O[C@H]1CCC=C2C=C[C@H](C)[C@H](CC[C@@H]3C[C@@H](O)CC(=O)O3)[C@H]21` [Mevastatin, reference compound], at HMG-CoA reductase (10 µM), the “% of inhibition on HMG-CoA reductase activity, Aqueous medium” value is reported as 35% and the “% of inhibition on HMG-CoA reductase activity, DMSO medium” value stood at 60%.
Regarding `CCC(C)(C)C(=O)O[C@H]1C[C@@H](C)C=C2C=C[C@H](C)[C@H](CC[C@@H]3C[C@@H](O)CC(=O)O3)[C@H]21` [Simvastatin, reference compound], the inhibition at 10 µM amounted to 35% at HMG-CoA reductase (HepG2, read-out: % of inhibition on HMG-CoA reductase activity, Aqueous medium) and 65% on HMG-CoA reductase (setting [3]).
For “DSLSPWNEGDTYYG (Buthus martensii Karsch) [Peptide 6]”, the “% of inhibition on HMG-CoA reductase activity, Aqueous medium” value with HMG-CoA reductase (setting [4]) was determined as 4%.
Same read-out and setting: as for “GCQRQTDEFCNKICKLHLASG (Buthus martensii Karsch) [Peptide 5]”, the figure is 2%; as for “GDTYYG (Buthus martensii Karsch) [Peptide 9]”, 3%.
Consider “KLHLASGGSCQQPAPFVKL (Buthus martensii Karsch) [Peptide 2]”, for which, in the assay with HMG-CoA reductase (setting [4]), the “% of inhibition on HMG-CoA reductase activity, Aqueous medium” value was found to be 30% and the “% of inhibition on HMG-CoA reductase activity, DMSO medium” value was found to be 7%.
Turning to “LSPWNEGDTYYGCQR (Buthus martensii Karsch) [Peptide 7]”, the “% of inhibition on HMG-CoA reductase activity, Aqueous medium” value in the assay with HMG-CoA reductase (setting [4]) is recorded as 2%.
On to “PAPFVKLCTCQGIDYDNSFFFG (Buthus martensii Karsch) [Peptide 3]”, for which, in the assay with HMG-CoA reductase (setting [4]), the “% of inhibition on HMG-CoA reductase activity, Aqueous medium” value is reported as 10% and the “% of inhibition on HMG-CoA reductase activity, DMSO medium” value amounted to 15%.
For “QGIDYDNSFFFGALEKQCPK (Buthus martensii Karsch) [Peptide 4]”, the “% of inhibition on HMG-CoA reductase activity, Aqueous medium” value in the assay with HMG-CoA reductase (setting [4]) is recorded as 7%.
Regarding “QPAPFVKLCTCQGI (Buthus martensii Karsch) [Peptide 1]”, in the assay with HMG-CoA reductase (setting [4]), the “% of inhibition on HMG-CoA reductase activity, Aqueous medium” value is given as 20% and the “% of inhibition on HMG-CoA reductase activity, DMSO medium” value is recorded as 20%.
In the case of “SPWNEGD (Buthus martensii Karsch) [Peptide 8]”, in the assay with HMG-CoA reductase (setting [4]), the “% of inhibition on HMG-CoA reductase activity, Aqueous medium” value came out at 1%.

B1: JCH2 native protein purified from Buthus martensii Karsch venom (protein)
chain: DSLSPWNEGDTYYGCQRQTDEFCNKICKLHLASGGSCQQPAPFVKLCTCQGIDYDNSFFFGALEKQCPKLRE
Consider B1, for which the “HMGCoA reductase inhibitory activity (in words)” value with HMGCoA reductase is listed as “higher inhibitory activity”. Also, the “HMGCoA reductase mRNA (in words)” value in the assay with HepG2 cell (microarray) is listed as “reducing the reductase mRNA”. The “mevalonate, the precursor for cholesterol biosynthesis (in words)” value with HepG2 cell (microarray analysis) is “lowering the mevalonate”. Besides, in assay [1], the “ApoC-II/III (8.8 kDa)” value is listed as “↑ ↑” and the “StAR related lipid transfer protein (23.0 kDa)” value is on record as “↑ ↑”. Also, in the assay with HMG-CoA reductase (HepG2 cell HMGCoA reductase, JCH2 0.6 μM vs statins 10 μM), the “HMGCoA reductase inhibitory activity compared with statins (in words)” value is “lowering the HMGCoA reductase activity at much lower concentrations than the known inhibitors; also recorded: higher inhibitory activity”. Moreover, the “% of inhibition on HMG-CoA reductase activity, Aqueous medium” value in the assay with HMG-CoA reductase (HepG2 cells treated with native proteins at 10 μg each (JCH2 0.6 μM), vs untreated cells) was found to be 30%. The % of inhibition on HMG-CoA reductase activity, aqueous medium, JCH2 at 0.6 µM (10 µg) in assay [2] stood at 30%.

A word on the inhibition: it is how much of the control response was suppressed.
